Source: paper PMC5454392, “Selective BET bromodomain inhibition as an antifungal therapeutic strategy” (Nature Communications, 2017)
Numbered stars: 1 amine (or outer) side, 2 acyl side, 3 side chain; on linkers, the order of the positions; unused ones are H or OH. Square brackets hold non-standard residues; d marks the D form. Ends that are not written are not given here. Arg(Me2a) = CN(C)C(=N)NCCC[C@H](N)C(=O)O; Kac = CC(=O)NCCCC[C@H](N[*:1])C(=O)[*:2]; Lys(Me3) = C[N+](C)(C)CCCC[C@H](N)C(=O)O; Arg(Me2s) = CN=C(NC)NCCC[C@H](N)C(=O)O; pT = C[C@@H](OP(=O)(O)O)[C@H](N)C(=O)O; Lys(Me2) = CN(C)CCCC[C@H](N)C(=O)O; pS = N[C@@H](COP(=O)(O)O)C(=O)O; Cit = NC(=O)NCCC[C@H](N)C(=O)O; Lys(Me) = CNCCCC[C@H](N)C(=O)O; Me2a = not defined here; me2a = not defined here

B1: c-myc tag (peptide)
chain: EQKLISEEDLA
modifications: histone peptide post-translational modifications (acetyl, methyl, phospho, citrulline) listed in columns 4-7 and embedded in the sequence text; N-terminus free or acetylated in column 8
B2: H3 1-19 (peptide)
chain: A[Arg(Me2a)]T[Kac]QTAR[Kac]STGGKAPRKQ
B3: H2a 1-19 (peptide)
chain: SGRGKQGGK(Ac)ARAK(Ac)AKSRSS
B4: H2B 1-19 (peptide)
chain: PDPAKSAPAPKKG[pS]K(Ac)KAVT
B5: H3 1-19 (peptide)
chain: ARTKQTA[Arg(Me2a)][Lys(Me)]S[pT]GGKAPRKQ
B6: H3 1-19 (peptide)
chain: ARTKQTARKSTGGKAPRKQ
modifications: A R T K Q T A Rme2a Kme3 pS T G G K A P R K Q
B7: H4 1-19 (peptide)
chain: SGRGKGGKGLGKGGAKRHR
modifications: S G R G K G G K G L G Kac G G A Kac R H R
B8: H3 1-19 (peptide)
chain: ARTKQTARKSTGGKAPRKQ
modifications: A R T K Q T A Rme2s Kme3 pS T G G K A P R K Q
B9: H3 1-19 (peptide)
chain: ARTKQTARKSTGGKAPRKQ
modifications: A R T K Q T A Rme2a Kme3 S pT G G K A P R K Q
B10: H3 1-19 (peptide)
chain: A[Arg(Me2s)]TK(Ac)QTA[Arg(Me2a)][Lys(Me)]STGGKAPRKQ
B11: H3 1-19 (peptide)
chain: ARTKQTARKSTGGKAPRKQ
modifications: A R T K Q T A Rme2a Kme3 pS pT G G K A P R K Q
B12: H2a 1-19 (peptide)
chain: [pS]GRGKQGGK(Ac)ARAKAKSRSS
B13: H4 1-19 (peptide)
chain: SGRGKGGKGLGKGGAKRHR
modifications: S G Rme2a G K G G K G L G K G G A K R H R
B14: H3 1-19 (peptide)
chain: ARTK(Me)QTAR(me2s)K(me3)STGGKAPRKQ
B15: H4 1-19 (peptide)
chain: SGRGKGGKGLGKGGAKRHR
modifications: pS G Rme2s G Kac G G K G L G K G G A K R H R
B16: H3 1-19 (peptide)
chain: ARTKQTARKSTGGKAPRKQ
modifications: A R T Kac Q T A Rme2a Kme1 S T G G K A P R K Q
B17: H3 26-45 (peptide)
chain: RKSAPATGGVKKPHRYRPG
modifications: not fully specified; histone peptide post-translational modifications (acetyl, methyl, phospho, citrulline) listed in columns 4-7 and embedded in the sequence text; N-terminus free or acetylated in column 8
B18: H2B 1-19 (peptide)
chain: PDPAK(Ac)SAPAPKK(Ac)GSK(Ac)KAVT
B19: H3 1-19 (peptide)
chain: A[Arg(Me2s)]T[Kac]QTA[Arg(Me2s)][Lys(Me2)]STGGKAPRKQ
B20: H4 1-19 (peptide)
chain: SGRGKGGKGLGKGGAKRHR
modifications: S G R G K G G Kac G L G K G G A K R H R
B21: H3 1-19 (peptide)
chain: A[Arg(Me2s)]T[Lys(Me2)]QTA[Arg(Me2a)][Lys(Me)]STGGKAPRKQ
B22: H4 1-19 (peptide)
chain: SGRGKGGKGLGKGGAKRHR
modifications: S G Rme2s G Kac G G K G L G K G G A K R H R
B23: H3 1-19 (peptide)
chain: ARTKQTARKSTGGKAPRKQ
modifications: A Rme2s T Kac Q T A Rme2s Kme3 S T G G K A P R K Q
B24: H4 1-19 (peptide)
chain: SGRGKGGKGLGKGGAKRHR
modifications: S G R G Kac G G K G L G K G G A K R H R
B25: background 01 (peptide)
chain: K[Lys(Me)][Lys(Me2)][Lys(Me3)]K(Ac)R[Arg(Me2s)]R[Arg(Me2a)]R[Cit]K[Lys(Me)]K(Ac)[Lys(Me3)]RK
B26: H3 1-19 (peptide)
chain: ARTKQTARKSTGGKAPRKQ
modifications: A Rme2s T Kme2 Q T A Rme2s Kme2 S T G G K A P R K Q
B27: H4 1-19 (peptide)
chain: SGRGKGGKGLGKGGAKRHR
modifications: S G R G Kac G G Kac G L G Kac G G A Kac R H R
B28: H3 1-19 (peptide)
chain: AR(me2s)TK(Me)QTAR(me2s)K(me3)STGGKAPRKQ
B29: H3 1-19 (peptide)
chain: A[Arg(Me2s)]TKQTARKSTGGKAPRKQ
B30: H3 16-35 (peptide)
chain: PRKQLATKAAR(Me2s)K[pS]APATGG
B31: H4 1-19 (peptide)
chain: SGRGKGGKGLGKGGAKRHR
modifications: S G Rme2a G K G G Kac G L G K G G A K R H R
B32: H3 16-35 (peptide)
chain: PRKQLATKAAR(Me2a)K(Me3)[pS]APATGG
modifications: reading uncertain
B33: H3 1-19 (peptide)
chain: AR(me2a)TK(me2)QTAR(me2a)K(Me)STGGKAPRKQ
modifications: reading uncertain
B34: H3 1-19 (peptide)
chain: ARTKQTARKSTGGKAPRKQ
modifications: A Rme2a T Kme3 Q T A Rme2a Kme3 S T G G K A P R K Q
B35: H2B 1-19 (peptide)
chain: PDPAK(Ac)SAPAPKKGSKKAVT
B36: H3 1-19 (peptide)
chain: AR[pT]KQTARKSTGGKAPRKQ
B37: H2a 1-19 (peptide)
chain: SGRGK(Ac)QGGK(Ac)ARAK(Ac)AKSRSS
B38: H3 1-19 (peptide)
chain: ARTKQTARKSTGGKAPRKQ
modifications: A R T K Q T A R Kac S T G G Kac A P R K Q
B39: H3 1-19 (peptide)
chain: ARTKQTARKSTGGKAPRKQ
modifications: A Rme2a T Kme1 Q T A Rme2a Kme1 S T G G K A P R K Q
B40: H3 1-19 (peptide)
chain: ARTK(Ac)QTARKSTGGKAPRKQ
B41: H3 16-35 (peptide)
chain: PRKQLATKAARKSAPATGG
modifications: P R K Q L A T K A A R Kme2 S A P A T G G
B42: H4 1-19 (peptide)
chain: SGRGKGGKGLGKGGAKRHR
modifications: S G R G K G G K G L G Kac G G A K R H R
B43: H3 1-19 (peptide)
chain: ARTKQTARKSTGGKAPRKQ
modifications: A R T K Q T A Rme2s K S T G G K A P R K Q
B44: H2B 1-19 (peptide)
chain: PDPAK(Ac)SAPAPKK(Ac)GSKKAVT
B45: H3 1-19 (peptide)
chain: ARTKQTA[Arg(Me2s)][Lys(Me)][pS]TGGKAPRKQ
B46: H2a 1-19 (peptide)
chain: [pS]GRGK(Ac)QGGK(Ac)ARAKAKSRSS
B47: H3 1-19 (peptide)
chain: ART[Lys(Me3)]QTARKSTGGKAPRKQ
B48: H3 1-19 (peptide)
chain: ARTKQTARKSTGGKAPRKQ
modifications: A R T Kac Q T A Rme2s Kme2 S T G G K A P R K Q
B49: H4 1-19 (peptide)
chain: SGRGKGGKGLGKGGAKRHR
modifications: pS G Rme2a G Kac G G Kac G L G K G G A K R H R
B50: H3 1-19 (peptide)
chain: ARTKQTARKSTGGKAPRKQ
modifications: A R T K Q T A R Kme2 S pT G G K A P R K Q

Molecular target: T1, CaBdf1 BD1 (GST-tagged, wild-type) (Candida albicans (strain SC5314 / ATCC …, UniProt Q5A4W8))
T1 chain: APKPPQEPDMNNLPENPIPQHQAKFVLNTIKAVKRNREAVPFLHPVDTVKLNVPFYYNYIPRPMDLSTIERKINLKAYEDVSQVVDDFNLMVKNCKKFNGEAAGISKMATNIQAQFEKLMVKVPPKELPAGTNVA
Assay: histone peptide array (Active Motif MODified), 1 uM GST-tagged bromodomain, anti-GST detection, normalized mean intensity

Compared with B1, B2 is lower in binding score: 1.01 for the first, 0.046 for the second.

First: B3
Second: B4
The binding score of the first is higher: 0.178 for the first, 0.0914 for the second.

Compared with B5, B6 is lower in binding score: 0.00471 for the first, 0.00254 for the second.

First: B7
Second: B8
The binding score of the first is higher: 0.0743 for the first, 0.00508 for the second.

Going from B9 to B10, the binding score rises from 0.00653 to 0.00834.

First: B11
Second: B12
The binding score of the first is lower: 0.00326 for the first, 0.0174 for the second.

First: B13
Second: B14
The binding score of the first is higher: 0.00906 for the first, 0.00435 for the second.

Going from B15 to B16, the binding score falls from 0.0131 to 0.00834.

Compared with B17, B18 is higher in binding score: 0.00508 for the first, 0.0616 for the second.

First: B19
Second: B20
The binding score of the first is lower: 0.00725 for the first, 0.0344 for the second.

Compared with B21, B22 is higher in binding score: 0.00544 for the first, 0.0225 for the second.

First: B23
Second: B24
The binding score of the first is lower: 0.00834 for the first, 0.0185 for the second.

Going from B25 to B26, the binding score falls from 0.00906 to 0.00435.

Going from B27 to B28, the binding score falls from 0.471 to 0.0029.

Going from B29 to B30, the binding score rises from 0.000725 to 0.00181.

First: B31
Second: B32
The binding score of the first is higher: 0.0218 for the first, 0.00218 for the second.

Going from B33 to B34, the binding score rises from 0.00363 to 0.00399.

Going from B35 to B36, the binding score falls from 0.00363 to 0.

First: B37
Second: B38
The binding score of the first is lower: 0.0591 for the first, 0.095 for the second.

B39 and B40 are the same in binding score: 0.00363 for the first, 0.00363 for the second.

Compared with B41, B42 is higher in binding score: 0.00254 for the first, 0.033 for the second.

First: B43
Second: B44
The binding score of the first is lower: 0.00218 for the first, 0.017 for the second.

First: B45
Second: B46
The binding score of the first is lower: 0.00508 for the first, 0.0381 for the second.

Compared with B47, B48 is lower in binding score: 0.00399 for the first, 0.00363 for the second.

First: B49
Second: B50
The binding score of the first is higher: 0.0312 for the first, 0.00544 for the second.

Molecular target: T2, CaBdf1 BD2 (GST-tagged, wild-type) (Candida albicans (strain SC5314 / ATCC …, UniProt Q5A4W8))
T2 chain: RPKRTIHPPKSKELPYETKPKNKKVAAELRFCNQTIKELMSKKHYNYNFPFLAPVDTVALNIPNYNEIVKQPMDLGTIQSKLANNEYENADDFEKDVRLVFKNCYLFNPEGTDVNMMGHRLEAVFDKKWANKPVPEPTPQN
Assay: as above

Going from B1 to B2, the binding score falls from 1 to 0.00851.

Going from B3 to B4, the binding score rises from 0.0481 to 0.145.

Going from B5 to B6, the binding score rises from 0.00259 to 0.00333.

Going from B7 to B8, the binding score falls from 0.0248 to 0.00333.

First: B9
Second: B10
The binding score of the first is higher: 0.00555 for the first, 0.00296 for the second.

First: B11
Second: B12
The binding score of the first is lower: 0.0037 for the first, 0.0137 for the second.

First: B13
Second: B14
The binding score of the first is higher: 0.0215 for the first, 0.00407 for the second.

B15 and B16 are the same in binding score: 0.00555 for the first, 0.00555 for the second.

Compared with B17, B18 is higher in binding score: 0.00296 for the first, 0.137 for the second.

First: B19
Second: B20
The binding score of the first is lower: 0.00666 for the first, 0.027 for the second.

Going from B21 to B22, the binding score rises from 0.0037 to 0.00555.

Going from B23 to B24, the binding score rises from 0.00555 to 0.0241.

First: B25
Second: B26
The binding score of the first is higher: 0.00629 for the first, 0.00407 for the second.

First: B27
Second: B28
The binding score of the first is higher: 0.902 for the first, 0.00629 for the second.

Going from B29 to B30, the binding score rises from 0.0037 to 0.00444.

First: B31
Second: B32
The binding score of the first is higher: 0.0074 for the first, 0.00296 for the second.

First: B33
Second: B34
The binding score of the first is higher: 0.00629 for the first, 0.00333 for the second.

Going from B35 to B36, the binding score rises from 0 to 0.00259.

Going from B37 to B38, the binding score rises from 0.00888 to 0.0211.

First: B39
Second: B40
The binding score of the first is higher: 0.00259 for the first, 0.00222 for the second.

Going from B41 to B42, the binding score rises from 0.00666 to 0.00851.

First: B43
Second: B44
The binding score of the first is lower: 0.00148 for the first, 0.00555 for the second.

First: B45
Second: B46
The binding score of the first is lower: 0.00259 for the first, 0.00925 for the second.

First: B47
Second: B48
The binding score of the first is lower: 0.00148 for the first, 0.00296 for the second.

Compared with B49, B50 is lower in binding score: 0.0396 for the first, 0.00185 for the second.
